Earlier results, collected in paper PMC10878502.

Legend:
ASPP1 (Homo sapiens) = ASPP1 (Homo sapiens) (UniProt Q96KQ4)
ASPP2 (Homo sapiens) = ASPP2 (Homo sapiens) (UniProt Q13625)
[1] = biological target: iASPP ANK-SH3 (Homo sapiens) (UniProt Q8WUF5)
[2] = biological target: ASPP2 ANK-SH3 (Homo sapiens) (UniProt Q13625)
ASPP2 ANK-SH3 (Homo sapiens), sequence (Q13625 892-1128): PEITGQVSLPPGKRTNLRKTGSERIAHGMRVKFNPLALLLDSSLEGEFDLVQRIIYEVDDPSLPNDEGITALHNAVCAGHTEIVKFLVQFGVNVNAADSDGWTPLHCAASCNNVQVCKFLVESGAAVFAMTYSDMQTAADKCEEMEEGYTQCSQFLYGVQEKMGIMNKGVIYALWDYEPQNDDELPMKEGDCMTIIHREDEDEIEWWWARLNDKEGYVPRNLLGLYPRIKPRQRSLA

iASPP ANK-SH3 (Homo sapiens), sequence (Q8WUF5 608-828): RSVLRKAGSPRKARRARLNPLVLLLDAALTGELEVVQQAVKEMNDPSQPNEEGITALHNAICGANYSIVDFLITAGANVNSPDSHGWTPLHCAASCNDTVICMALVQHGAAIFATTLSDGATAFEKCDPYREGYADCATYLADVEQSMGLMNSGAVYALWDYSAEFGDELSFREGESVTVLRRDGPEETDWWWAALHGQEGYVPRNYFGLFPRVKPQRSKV
ASPP1 (Homo sapiens), sequence (Q96KQ4 whole entry): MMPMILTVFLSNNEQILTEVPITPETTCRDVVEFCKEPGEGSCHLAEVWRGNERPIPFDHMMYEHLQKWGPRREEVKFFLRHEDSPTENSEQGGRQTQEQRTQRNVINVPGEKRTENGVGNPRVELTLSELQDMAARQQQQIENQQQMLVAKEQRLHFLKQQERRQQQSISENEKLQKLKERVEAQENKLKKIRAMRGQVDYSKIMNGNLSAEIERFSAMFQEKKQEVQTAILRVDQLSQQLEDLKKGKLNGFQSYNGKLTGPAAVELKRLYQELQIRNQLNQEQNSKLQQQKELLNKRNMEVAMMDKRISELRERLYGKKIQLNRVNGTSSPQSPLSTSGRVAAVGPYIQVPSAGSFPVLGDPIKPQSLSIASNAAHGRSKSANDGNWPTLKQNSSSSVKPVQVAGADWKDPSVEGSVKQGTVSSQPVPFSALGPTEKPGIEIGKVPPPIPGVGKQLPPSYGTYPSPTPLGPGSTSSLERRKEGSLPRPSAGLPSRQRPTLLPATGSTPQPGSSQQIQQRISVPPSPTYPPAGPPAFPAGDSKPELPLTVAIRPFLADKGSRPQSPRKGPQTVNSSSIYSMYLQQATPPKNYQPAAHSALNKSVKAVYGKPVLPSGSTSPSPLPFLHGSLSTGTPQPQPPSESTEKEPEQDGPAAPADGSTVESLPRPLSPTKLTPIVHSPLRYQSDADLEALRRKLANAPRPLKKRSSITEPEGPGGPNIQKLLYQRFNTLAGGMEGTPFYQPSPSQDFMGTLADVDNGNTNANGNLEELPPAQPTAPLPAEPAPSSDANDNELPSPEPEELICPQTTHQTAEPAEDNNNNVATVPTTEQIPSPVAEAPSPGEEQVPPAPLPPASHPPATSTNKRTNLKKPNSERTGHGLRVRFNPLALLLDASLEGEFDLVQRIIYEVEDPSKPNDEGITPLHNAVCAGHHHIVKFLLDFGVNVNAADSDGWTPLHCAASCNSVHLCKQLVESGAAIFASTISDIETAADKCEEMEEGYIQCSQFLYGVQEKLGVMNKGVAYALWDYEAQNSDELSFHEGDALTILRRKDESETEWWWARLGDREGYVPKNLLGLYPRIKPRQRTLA
ASPP2 (Homo sapiens), sequence (Q13625 whole entry): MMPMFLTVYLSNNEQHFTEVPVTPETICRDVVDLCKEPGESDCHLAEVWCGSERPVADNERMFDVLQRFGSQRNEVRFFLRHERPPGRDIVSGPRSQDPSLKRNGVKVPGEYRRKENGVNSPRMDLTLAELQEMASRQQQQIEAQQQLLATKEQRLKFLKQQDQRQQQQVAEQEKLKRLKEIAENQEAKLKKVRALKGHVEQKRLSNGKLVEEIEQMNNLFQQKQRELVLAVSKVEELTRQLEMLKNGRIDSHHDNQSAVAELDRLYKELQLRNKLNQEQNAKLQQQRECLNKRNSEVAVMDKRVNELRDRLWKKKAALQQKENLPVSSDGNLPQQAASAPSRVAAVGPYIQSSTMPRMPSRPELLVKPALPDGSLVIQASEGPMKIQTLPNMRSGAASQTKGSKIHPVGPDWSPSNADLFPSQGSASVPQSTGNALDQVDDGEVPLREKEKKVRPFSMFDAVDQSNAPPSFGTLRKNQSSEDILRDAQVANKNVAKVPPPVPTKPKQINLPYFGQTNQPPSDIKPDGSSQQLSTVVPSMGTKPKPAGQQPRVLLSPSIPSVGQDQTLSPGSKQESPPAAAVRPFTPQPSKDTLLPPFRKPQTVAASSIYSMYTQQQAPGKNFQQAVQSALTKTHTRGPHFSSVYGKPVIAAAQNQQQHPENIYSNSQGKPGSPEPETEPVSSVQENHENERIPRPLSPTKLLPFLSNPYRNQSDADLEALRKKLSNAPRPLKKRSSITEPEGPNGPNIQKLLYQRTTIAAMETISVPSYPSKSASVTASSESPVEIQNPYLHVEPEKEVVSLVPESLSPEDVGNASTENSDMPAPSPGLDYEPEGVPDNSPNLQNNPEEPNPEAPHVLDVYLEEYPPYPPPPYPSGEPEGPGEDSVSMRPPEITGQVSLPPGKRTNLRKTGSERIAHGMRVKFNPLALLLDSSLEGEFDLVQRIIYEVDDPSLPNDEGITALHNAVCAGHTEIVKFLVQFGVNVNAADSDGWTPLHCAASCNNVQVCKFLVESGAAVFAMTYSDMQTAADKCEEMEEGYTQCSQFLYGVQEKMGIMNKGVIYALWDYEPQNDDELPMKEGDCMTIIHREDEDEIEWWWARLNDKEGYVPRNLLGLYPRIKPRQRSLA

Kd (ASPP1 (Homo sapiens)) [nM] | Kd (ASPP2 (Homo sapiens)) [µM] | Kd [1] [nM] | Kd [2] [nM] | Substance
500 | 5 |  |  | p53 (from UniProt P04637)
 |  | 23.3 | 26.4 | p53 DBD (from UniProt P04637)
